What was measured:
purified protein [1] = substrate: O=P(O)(O)O[C@H]1O[C@H](CO)[C@@H](O)[C@H](O)[C@H]1O; test: purified protein; assay type: biochemical, Bacillus subtilis; settings: 200 μM UTP, MgCl2 10 mg/ml (so in the source), 50 mM Tris pH 7.5, 500 mM NaCl, 5% glycerol, RT
purified protein [2] = substrate: O=c1ccn([C@@H]2O[C@H](COP(=O)(O)OP(=O)(O)OP(=O)(O)O)[C@@H](O)[C@H]2O)c(=O)[nH]1; test: purified protein; assay type: biochemical, Bacillus subtilis; settings: 200 μM Glc-1-P, MgCl2 10 mg/ml (so in the source), 50 mM Tris pH 7.5, 500 mM NaCl, 5% glycerol, RT

| Protein | Km (purified protein [1]) [µM] | kcat (purified protein [1]) [s⁻¹] | Km (purified protein [2]) [µM] | kcat (purified protein [2]) [s⁻¹] |
| --- | --- | --- | --- | --- |
| GtaB (Bacillus subtilis subsp. subtilis str. 168) (protein, full-length, C-terminal His-tag cleaved off with thrombin (pET28b-gtaB-cHis), E. coli BL21(DE3)) MKKVRKAIIPAAGLGTRFLPATKAMPKEMLPIVDKPTIQYIIEEAVEAGIEDIIIVTGKSKRAIEDHFDYSPELERNLEEKGKTELLEKVKKASNLADIHYIRQKEPKGLGHAVWCARNFIGDEPFAVLLGDDIVQAETPGLRQLMDEYEKTLSSIIGVQQVPEEETHRYGIIDPLTSEGRRYQVKNFVEKPPKGTAPSNLAILGRYVFTPEIFMYLEEQQVGAGGEIQLTDAIQKLNEIQRVFAYDFEGKRYDVGEKLGFITTTLEFAMQDKELRDQLVPFMEGLLNKEEI | 45.6 ± 3.24 | 1.06 | 49.5 ± 10.2 | 1.04 |
| YngB (Bacillus subtilis subsp. subtilis str. 168) (protein, full-length, C-terminal His-tag kept (pET28b-yngB-cHis), E. coli BL21(DE3); native (Met) protein in kinetics; dimer in crystal) MRKKVRKAVIPAAGLGTRFLPATKAQPKEMLPIVDKPAIQYIVEEAAESGIEDILIITGRNKRSIEDHFDRSAELEFNLREKGKTETLKEMQQIADLANIHYIRQKEPLGLGHAVLCAEHFIGDEPFAVLLGDDIMVSETPALRQLMDVYDVYGTEVVGVQSVLPEDVSKYGIINTSGSQGHVYEVNDLVEKPSPEEAPSEIAVMGRYVLNSSIFSVLKTIGRGAGNEIQLTDALREVCRKEPIHARLLEGNRYDIGDKLGCFKASTEIGLMRPEMRSQLLAYLEDVIKRETKEMLR | 42.1 ± 20.2 | 0.264 | 62.9 ± 13.8 | 0.293 |
